Measured values from the RNAGym collection of RNA variant scans (doi:10.7554/elife.80360).

B1: HDV Ribozyme (parent)
chain: GGCCGGCAUGGUCCCAGCCUCCUCGCUGGCGCCGGCUGGGCAACAUUCCGAGGGGACCGUCCCCUCGGUAAUGGCGAAUGGGACCCA

Variants of: B1
Test: self-cleavage, relative activity (ratio to wild type); higher = more cleavage; co-transcriptional

Variant	self-cleavage
G35C G38U	0.0875
G34U C85G	0.128
G34U C85A	0.164
G34A G39U	0.287
G34U A51U	0.169
G34C G50C	0.288
C33G A42C	0.142
C33G A42G	0.0665
G34A U60A	0.204
C33A G73C	0.149
G35C A56C	0.302
C33U A87G	0.79
C33U A87U	0.885
C33U U65G	1.14
C33U U65C	0.969
C33U U65A	0.739
G35A C62A	0.526
G35C C85G	0.0923
C33U G81A	0.285
C33A C44G	0.0475
C33A C44A	0
G34U G80C	0.143
G34U G80A	0.113
G34C G55A	0.147

Variant	self-cleavage
G34C G55U	0.113
G34C G40C	0.113
G34C G40A	0.354
G35A C63G	0.346
G35A G53U	0.736
G34C G80C	0.23
G34C G80A	0.138
G34U G53A	0.189
C33G A45U	0.185
G35A C57A	0.545
G34C A70C	0.123
G34C C57U	0.188
G35A C86U	0.712
C33A C49G	0.166
C33A G38C	0.151
C33U G52U	0.747
C33U G52A	0.71
C33A G74U	0.0755
C33A G74C	0.106
C33U G35C	0.237
C33U G35A	0.205
C33U G35U	0.383
C33U G55U	0.865
C33U G55C	0.831

Variant	self-cleavage
G34A U46G	0.0332
G34A U46C	0.215
G35C C66G	0.228
G34C G54C	0.295
C33G U60C	0.196
C33G U60A	0.19
G35C C49A	0.119
C33U G76C	1.07
C33U G76U	1.02
G34C U65A	0.138
G34C U65G	0.208
C33A A71C	0.248
C33U A70G	0.758
C33A C62G	0.208
C33A C62U	0.241
C33A C62A	0.344
C33G G53C	0.156
G34U C49A	0.151
C33A G68A	0.157
C33A U72C	0.151
G35C A78C	0.0519
G34U G54U	0.0923
C33U U72A	0.346
C33U U72C	0.268

Variant	self-cleavage
C33A C61A	0.281
C32U U79A	0.653
C33U U46C	0.68
G35A C41A	0.562
C33A A51C	0.147
C33G G82A	0
C33G C66G	0.122
C33A U37C	0.469
C33A U37G	0.119
G34A A70G	0.233
G34U C62A	0.0831
G34U C62U	0.229
G34A A83C	0.203
G34A A83G	0.0817
C33U C44G	0.453
G34U C58U	0.153
G34C A78U	0.0475
C33U U69A	0.898
G34A C61A	0.302
G34A C61G	0.104
G35A C49G	0.425
G34A G38C	0.166
C33A A42C	0.146
G35A U79G	0.397

Variant	self-cleavage
G34U U47C	0.234
C33G U37G	0.161
C33U C57A	0.935
C33U C57G	1.04
C33U C57U	0.719
C33U C63A	0.716
G34U U37G	0.0519
C33G G81U	0.0354
C33U A83C	0.242
G34C A45C	0.107
G34C A45U	0.0378
C33A G35U	0.137
G34U G81A	0.166
G34U A71C	0.161
G34C C66G	0.169
G35A A42U	0.166
G35A A42C	0.277
G35A C85U	0.541
C33U G68A	0.796
G34C G76C	0.332
G34C G76U	0.358
G35A C48U	0.499
G35A C48G	0.539
C33G G74A	0.0449

Variant	self-cleavage
G34C G39A	0.0536
G34C G39C	0.0554
C33U G38A	0.172
G34C U46A	0.158
G34A C75U	0.086
G34U A78G	0.111
G34U A78C	0.0369
G34U A77U	0.163
G34A G74U	0.0875
G34A G74A	0.0852
G34A C44G	0.134
G34A C44U	0.0863
C33A G55A	0.159
G34C G59A	0.143
G35C C84G	0.116
G35C C84A	0.271
G34A G76C	0.217
G34A G40U	0.0685
C33A C48G	0.125
C33A C48U	0.163
G34A U47A	0.0997
G34U A56G	0.288
G35C C64G	0.426
G34A G81C	0.0733

Variant	self-cleavage
G34A C41A	0.157
G34A C41U	0.217
C33G A70C	0.145
G35C C61U	0.188
G35C C61A	0.283
C33A G39A	0.162
G35C G80A	0.212
G34U C57A	0.114
C33G C41U	0.119
C33G C41G	0.111
C33G A83C	0.252
G34A G55C	0.141
C33G G68C	0.0875
C33G G68U	0.173
C33G G35A	0.0604
G35A A77G	0.277
G34A A71G	0.178
G34A A71U	0.185
C33U C58A	1.06
G34C A43G	0
G34A C62U	0.106
G34A C62A	0.0692
G34C A42C	0.125
G34A C48A	0.259

Variant	self-cleavage
G34C G53C	0.0898
C33A G54A	0.253
G35A G40U	0.42
G35A G40A	0.346
C33G G54A	0.332
G35A U46C	0.289
G35A U46G	0
C33G A43U	0.175
C33A C41G	0.104
C33A C41A	0.0845
C33G U46A	0
G34C G68U	0.199
G34A A87G	0.159
G34A A87C	0.126
G35A G50U	0.629
C33A C57A	0.447
G35C G39U	0.0302
C33U A77C	0.298
G35A A56G	0.769
G34U G73A	0.109
G34U G73U	0.0455
G34C A83U	0.0755
C33A A43C	0.0852
G35A C64G	0.31

Variant	self-cleavage
C33A A83C	0.0449
C33A G59A	0.343
C33A G67C	0.277
C33G U65G	0.222
C33G U65C	0.115
G35C G68A	0.17
G34A C58A	0.203
G34C C64A	0.0739
C33G C86U	0.214
C33G U72C	0.115
G34A C36G	0.122
G34C A71U	0.095
G34U G76U	0.132
C33G G38A	0.0308
G35A A45U	0.406
G35C G52U	0.318
G35C G52C	0.128
G35C G52A	0.233
C33G C49A	0.119
C33A C84G	0.219
C33U G53A	0.95
C33U G53C	0.727
C33U C62U	0.816
C33U A51G	1.01

Variant	self-cleavage
G34A C63G	0.133
G35C C75A	0.225
G35C C86A	0.212
G34C U79A	0.104
G34A A45U	0.16
G35A C75G	0.218
C33U G73U	0.391
C33U G73C	0.31
C33U G73A	0.554
G34U G38U	0.248
G34U G38A	0.0702
G34U G38C	0.194
G35A G54A	0.349
G34C G73U	0.0627
C33G C62U	0.259
G34A C85G	0.0978
C33U C86G	0.884
C33U C86U	0.928
C33A A87G	0.14
C33A A87C	0.248
C33U U37C	0.923
C33U C85G	0.494
G34C C44A	0.0831
C33A G81C	0.222

Variant	self-cleavage
C33A G81A	0.0339
G34C G67C	0.123
G34C G67U	0.166
G34C G67A	0.211
G35A U65A	0.61
C33A A70U	0.458
C33A A70C	0.17
C33A A70G	0.198
G34A	0.189
G34U	0.19
G34C	0.195
C33G C64G	0.156
C33U G82U	0.266
G34C C36G	0.095
G35A U72G	0.251
G35A G80U	0.151
G35A G80C	0.162
G35A G80A	0.196
C33A U60C	0.415
C33A G34U	0.0712
G34A G73U	0.0437
G34U U46C	0.161
G34U U46G	0.196
G35C C36G	0.0978

Variant	self-cleavage
G34U G55U	0.105
G34U A83C	0.133
G34U A83U	0.173
C33U A78C	0.0831
C33G G39A	0.0997
G35A A43U	0.108
G35A A43G	0.185
C33G U79G	0.0665
G34U U65A	0.0923
C33U G34U	0.219
C33G G52C	0.128
C33A A78U	0.108
C33G C48A	0
G35C C62U	0.0665
G35C C62G	0.0594
C33A C58A	0.19
C33A C58U	0.142
G35C G53A	0.172
G35C G53C	0.208
G34A G50C	0.267
C33A G53C	0.332
C33U C36U	0.519
G34C C48A	0.161
C33G A78G	0

Variant	self-cleavage
C33A C66G	0.302
C33A C66A	0.485
C33A C66U	0.241
G34C C58U	0.181
G34U U72G	0.297
C33A G40C	0.217
G34U C63G	0.0475
G34U U69C	0.204
G34U U69A	0.102
G34U G59A	0.203
G34U G59C	0.142
C33A U79A	0.128
G34U C84G	0.161
C33U G59C	1.01
C33U C66G	0.946
C33U C66A	0.774
C33A C36A	0.213
G35A G39C	0.113
C33A U65A	0.332
G35C A45C	0
G35C A45U	0.122
G34U G74A	0.0821
G34U G74U	0.133
C33A U69A	0.325

Variant	self-cleavage
G34C C61U	0.154
G34C U47A	0.161
G34C U47G	0.133
C33G C36U	0.0997
G34U C66U	0.166
C33G U69G	0.123
C33G C58A	0.369
C33G C58U	0.147
C33U A42U	0.345
C33U C49A	0.946
G34A A43G	0.125
C33A C63A	0.196
C33G C84A	0.231
G35C G40A	0.271
G35A C36A	0.115
C33G C44U	0.172
C33G C44A	0.0978
G35C G74C	0.17
G35A A51G	0.673
G34C G81C	0.115
G34C C86A	0.13
G35A A78C	0.0528
